# Reference: publication PMC9772228, “Structure of a RecT/Redβ family recombinase in complex with a duplex intermediate of DNA annealing”
# T1: LiRecT WT (Listeria innocua CLIP 11262, UniProt Q92FL9 1-271)
# T1 sequence: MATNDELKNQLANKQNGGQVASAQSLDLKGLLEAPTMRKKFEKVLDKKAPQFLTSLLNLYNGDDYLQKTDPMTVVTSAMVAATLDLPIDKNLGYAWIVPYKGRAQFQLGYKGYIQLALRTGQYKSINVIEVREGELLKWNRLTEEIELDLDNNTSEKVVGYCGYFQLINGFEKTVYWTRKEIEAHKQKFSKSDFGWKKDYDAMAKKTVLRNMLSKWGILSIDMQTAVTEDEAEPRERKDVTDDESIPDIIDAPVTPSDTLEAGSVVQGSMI
# T2: λ-Redβ (bacteriophage lambda, UniProt P03698 1-261)
# T2 sequence: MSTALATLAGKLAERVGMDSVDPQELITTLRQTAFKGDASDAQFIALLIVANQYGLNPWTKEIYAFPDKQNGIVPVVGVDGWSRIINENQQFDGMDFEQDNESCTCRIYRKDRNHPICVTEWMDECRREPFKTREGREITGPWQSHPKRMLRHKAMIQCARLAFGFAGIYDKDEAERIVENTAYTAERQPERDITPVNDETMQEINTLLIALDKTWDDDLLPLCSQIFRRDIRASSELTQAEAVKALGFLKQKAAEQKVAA
# B1: Cy5-50mer (ssDNA)
# DNA: CCATCCGCAAAAATCGAGCTATGCAGGGCGATTCTGCTCTAAGCCATCCG
# B2: Cy3-50mer (ssDNA)
# DNA: GCGGATGGCTTAGAGCAGAATCGCCCTGCATAGCTCGATTTTTGCGGATG
# B3: 75- (ssDNA)
# DNA: TTAAAACATGTTGAGCTACAGCACCAGATTCAGCAATTAAGCTCTAAGCCATCCGCAAAAATGACCTCTTATCAA
# B4: 75+ (ssDNA)
# DNA: TTGATAAGAGGTCATTTTTGCGGATGGCTTAGAGCTTAATTGCTGAATCTGGTGCTGTAGCTCAACATGTTTTAA
# B5: 83-/83+ annealed duplex (sequential) (dsDNA)
# DNA 1: TTGCATATTTAAAACATGTTGAGCTACAGCACCAGATTCAGCAATTAAGCTCTAAGCCATCCGCAAAAATGACCTCTTATCAA
# DNA 2: TTGATAAGAGGTCATTTTTGCGGATGGCTTAGAGCTTAATTGCTGAATCTGGTGCTGTAGCTCAACATGTTTTAAATATGCAA
# B6: 80-/80+ annealed duplex (sequential) (dsDNA)
# DNA 1: CATATTTAAAACATGTTGAGCTACAGCACCAGATTCAGCAATTAAGCTCTAAGCCATCCGCAAAAATGACCTCTTATCAA
# DNA 2: TTGATAAGAGGTCATTTTTGCGGATGGCTTAGAGCTTAATTGCTGAATCTGGTGCTGTAGCTCAACATGTTTTAAATATG
# B7: 75-/75+ annealed duplex (sequential) (dsDNA)
# DNA 1: B3 DNA
# DNA 2: B4 DNA
# B8: 50-mer duplex intermediate (sequential addition) (dsDNA)
# DNA 1: B2 DNA
# DNA 2: B1 DNA
# B9: 83- (ssDNA)
# DNA: B5 DNA 1
# B10: 83+ (ssDNA)
# DNA: B5 DNA 2
# B11: 80- (ssDNA)
# DNA: B6 DNA 1
# B12: 80+ (ssDNA)
# DNA: B6 DNA 2
# Legend:
# [1] = target: LiRecT (RecT/Redβ family recombinase from the A118 prophage of Listeria innocua) (Listeria innocua); test: native MS; free LiRecT without DNA at 30 µM, 100 mM ammonium acetate pH 7
# LiRecT WT [2] = target: T1, LiRecT WT; test: EMSA; EMSA: PBS pH 7.4 (or KH2PO4/10 mM MgCl2 pH 6.0), 3.6 or 5 uM protein, 25 uM nt DNA, 37 C 15 min per strand, 0.8% agarose 1x TBE; cryo-EM: 20 mM KH2PO4 (Results: 10 mM), 10 mM MgCl2 pH 6.0, 37 C; native MS: 100 mM ammonium acetate pH 7, 37 C; settings: protein: recombinant, tags: N-terminal 6His, thrombin-cleaved in main prep, chain copies: 10, single strand
# LiRecT WT [3] = target: T1, LiRecT WT; test: native MS; 16 LiRecT:1 DNA among species; EMSA: PBS pH 7.4 (or KH2PO4/10 mM MgCl2 pH 6.0), 3.6 or 5 uM protein, 25 uM nt DNA, 37 C 15 min per strand, 0.8% agarose 1x TBE; cryo-EM: 20 mM KH2PO4 (Results: 10 mM), 10 mM MgCl2 pH 6.0, 37 C; native MS: 100 mM ammonium acetate pH 7, 37 C; settings: protein: recombinant; tags: N-terminal 6His, thrombin-cleaved in main prep; chain copies: 10; single strand
# LiRecT WT [4] = target: T1, LiRecT WT; test: native MS; 15 LiRecT:2 DNA among species; EMSA: PBS pH 7.4 (or KH2PO4/10 mM MgCl2 pH 6.0), 3.6 or 5 uM protein, 25 uM nt DNA, 37 C 15 min per strand, 0.8% agarose 1x TBE; cryo-EM: 20 mM KH2PO4 (Results: 10 mM), 10 mM MgCl2 pH 6.0, 37 C; native MS: 100 mM ammonium acetate pH 7, 37 C; settings: protein: recombinant; tags: N-terminal 6His, thrombin-cleaved in main prep; chain copies: 10; single strand
# LiRecT WT [5] = target: T1, LiRecT WT; test: native MS; 17-18 LiRecT:1:1; EMSA: PBS pH 7.4 (or KH2PO4/10 mM MgCl2 pH 6.0), 3.6 or 5 uM protein, 25 uM nt DNA, 37 C 15 min per strand, 0.8% agarose 1x TBE; cryo-EM: 20 mM KH2PO4 (Results: 10 mM), 10 mM MgCl2 pH 6.0, 37 C; native MS: 100 mM ammonium acetate pH 7, 37 C; settings: protein: recombinant; tags: N-terminal 6His, thrombin-cleaved in main prep; chain copies: 10; blunt
# LiRecT WT [6] = target: T1, LiRecT WT; test: native MS; 17 LiRecT:1:1; EMSA: PBS pH 7.4 (or KH2PO4/10 mM MgCl2 pH 6.0), 3.6 or 5 uM protein, 25 uM nt DNA, 37 C 15 min per strand, 0.8% agarose 1x TBE; cryo-EM: 20 mM KH2PO4 (Results: 10 mM), 10 mM MgCl2 pH 6.0, 37 C; native MS: 100 mM ammonium acetate pH 7, 37 C; settings: protein: recombinant; tags: N-terminal 6His, thrombin-cleaved in main prep; chain copies: 10; blunt
# LiRecT WT [7] = target: T1, LiRecT WT; test: native MS; 1-2 fewer subunits than 83-mer complex; EMSA: PBS pH 7.4 (or KH2PO4/10 mM MgCl2 pH 6.0), 3.6 or 5 uM protein, 25 uM nt DNA, 37 C 15 min per strand, 0.8% agarose 1x TBE; cryo-EM: 20 mM KH2PO4 (Results: 10 mM), 10 mM MgCl2 pH 6.0, 37 C; native MS: 100 mM ammonium acetate pH 7, 37 C; settings: protein: recombinant; tags: N-terminal 6His, thrombin-cleaved in main prep; chain copies: 10; blunt
# LiRecT WT [8] = target: T1, LiRecT WT; test: EMSA; sequential addition; EMSA: PBS pH 7.4 (or KH2PO4/10 mM MgCl2 pH 6.0), 3.6 or 5 uM protein, 25 uM nt DNA, 37 C 15 min per strand, 0.8% agarose 1x TBE; cryo-EM: 20 mM KH2PO4 (Results: 10 mM), 10 mM MgCl2 pH 6.0, 37 C; native MS: 100 mM ammonium acetate pH 7, 37 C; settings: protein: recombinant; tags: N-terminal 6His, thrombin-cleaved in main prep; chain copies: 10; label: 5'-Cy3;5'-Cy5; 49 bp, 1 nt 5' overhang at each end
# λ-Redβ = target: T2, λ-Redβ; test: as above; settings: protein: recombinant; label: 5'-Cy3;5'-Cy5; 49 bp, 1 nt 5' overhang at each end
# LiRecT WT [9] = target: T1, LiRecT WT; test: cryo-EM; 10 mM MgCl2, pH 6.0; EMSA: PBS pH 7.4 (or KH2PO4/10 mM MgCl2 pH 6.0), 3.6 or 5 uM protein, 25 uM nt DNA, 37 C 15 min per strand, 0.8% agarose 1x TBE; cryo-EM: 20 mM KH2PO4 (Results: 10 mM), 10 mM MgCl2 pH 6.0, 37 C; native MS: 100 mM ammonium acetate pH 7, 37 C; settings: protein: recombinant; tags: N-terminal 6His, thrombin-cleaved in main prep; chain copies: 10; single strand
# LiRecT WT [10] = target: T1, LiRecT WT; test: native MS; 17 LiRecT:2 DNA among species; EMSA: PBS pH 7.4 (or KH2PO4/10 mM MgCl2 pH 6.0), 3.6 or 5 uM protein, 25 uM nt DNA, 37 C 15 min per strand, 0.8% agarose 1x TBE; cryo-EM: 20 mM KH2PO4 (Results: 10 mM), 10 mM MgCl2 pH 6.0, 37 C; native MS: 100 mM ammonium acetate pH 7, 37 C; settings: protein: recombinant; tags: N-terminal 6His, thrombin-cleaved in main prep; chain copies: 10; single strand
molecule,measurement,setting,value
LiRecT (RecT/Redβ family recombinase from the A118 prophage of Listeria innocua) (natural protein),stoichiometry N,[1],< 9
B1,binding result,LiRecT WT [2]; label: 5'-Cy5,binds
B2,binding result,LiRecT WT [2]; label: 5'-Cy3,binds
B3,binding result,LiRecT WT [3],binds
B4,binding result,LiRecT WT [4],binds
B5,binding result,LiRecT WT [5],binds
B6,binding result,LiRecT WT [6],binds
B7,binding result,LiRecT WT [7],binds
B8,binding result,LiRecT WT [8],binds
same,binding result,λ-Redβ,binds
B9,binding result,LiRecT WT [9],binds
B10,binding result,LiRecT WT [10],binds
B11,binding result,LiRecT WT [10],binds
B12,binding result,LiRecT WT [10],binds
